Results on 3 substances are retold here after PMC8517087, “Analysis of M4 Transmembrane Segments in NMDA Receptor Function: A Negative Allosteric Modulatory Site at the GluN1 M4 is Determining the Efficiency of Neurosteroid Modulation” (Frontiers in Pharmacology, 2021).

Experiment [1] addresses GluN1/GluN2A^ΔM4 receptor (rat | mouse) (UniProt P35439).
Experiment [2] addresses GluN1^ΔM4/GluN2A^F637A receptor (rat | mouse) (UniProt P35439).
For experiment [3], the target named is GluN1^ΔM4/GluN2A receptor (M4-truncated core receptor) (rat | mouse) (UniProt P35439).

“M4^N1, isolated GluN1 M4 fragment (GluN 1^802–925) (from UniProt P35439 802-925) (domain or fragment)” had a rescue of agonist-induced current: Imax by TEVC in oocytes co-expressing M4^N1 with GluN1/GluN2A^ΔM4 in experiment [1] of 0.016 µA. Further, the rescued Imax current (TEVC) of GluN1^ΔM4/GluN2A^F637A co-expressed with M4^N1, normalised to the unmutated receptor in experiment [2] was 50 % decrease.
“M4^N1-F817A (from UniProt P35439 802-925) (domain or fragment)” had a rescue of agonist-induced current (TEVC) in oocytes co-expressing M4^N1-F817A with GluN1^ΔM4/GluN2A, compared with wt M4^N1 in experiment [3] of 90 % decrease.
The substance “M4^N2A, isolated GluN2A M4 fragment (GluN2A^804–1464) (from UniProt P35436 804-1464) (domain or fragment)” registered a rescue of agonist-induced current: Imax by TEVC in oocytes co-expressing M4^N2A with GluN1/GluN2A^ΔM4 in experiment [1] of 0.24 µA.
